From US20240376207A1 (JIANGSU HENGRUI PHARMACEUTICALS, published 2024) come the findings set out here.

B1: positive antibody Tab5 (antibody, human IgG4 S228P, kappa, F234A L235A, V domains shown)
VH: EVQLVESGGGVVKPGGSLRLSCAASGFTFGTSSMNWVRQAPGKGLEWVAVISFDGTEIHYADSVKGRFTISRDNSKSTVFLQMNSLRPDDTALYYCAKGSGNIYFYSGMDVWGQGTTVTVSS
VL: DIQMTQSPSTLSASVGDRVTITCRAGQSISGWLAWFQQKPGKAPNLLIYETSTLESGVPSRFSGSGSGTEYTLTISSLQPDDFATYYCQQYYSYPLTFGQGTKVEIKR
notes: Variable regions of CPA.7.021 (WO2016134333A1) on human IgG4 (S228P/F234A/L235A/K447A) and human kappa constant regions
B2: anti-PVRIG antibody 151 (antibody, human IgG4 S228P, F234A L235A, V domains shown)
VH: HVQLVESGGGSVQAGGSLRLSCVASASGFTYRPYCMAWFRQAPGKEREAVAGIDIFGGTTYADSVKGRFTASRDNAGFSLFLQMNDLKPEDTAMYYCAAGDSPDGRCPPLGQGLNYWGQGTQVTVSS
notes: no light chain
B3: anti-PVRIG antibody 38 (antibody, human IgG4 S228P, F234A L235A, V domains shown)
VH: QVQLVESGGGSVQAGGSLRLSCAASPSTYGPSDMAWFRQAPGKQREGVATISAAGRLTYYTDSVRGRFTISRDNAKNTMYLQMNSLKPEDTAMYYCAADFAGGSSLFADYKYWGQGTQVTVSS
notes: no light chain
B4: anti-PVRIG antibody 30 (antibody, human IgG4 S228P, F234A L235A, V domains shown)
VH: HVQLVESGGGSVQAGGSLRLSCEASGYSYSGDCMGWFRRAPGKERDEGVATIDNAGRIKYADSVKGRFTISHGNGKYILYLQMNSLKPEDTDMYYCAAGWTFGGNCSPADWGQGTQVTVSS
notes: no light chain
B5: anti-PVRIG antibody 39 (antibody, human IgG4 S228P, F234A L235A, V domains shown)
VH: QVQLVESGGGSVQAGGSLRLSCAASRYTSRTDCMGWFRQAPGKEREGVAHIDSDGIPRYVESVKGRFTISQDHAKNTLYLQMNSLKPEDSATYYCVVGFKFGDYCAPNDWGQGTQVTVSS
notes: no light chain
B6: humanized anti-PVRIG/TIGIT bispecific antibody 1708-20H5 (bispecific antibody, human IgG4 S228P, kappa)
heavy: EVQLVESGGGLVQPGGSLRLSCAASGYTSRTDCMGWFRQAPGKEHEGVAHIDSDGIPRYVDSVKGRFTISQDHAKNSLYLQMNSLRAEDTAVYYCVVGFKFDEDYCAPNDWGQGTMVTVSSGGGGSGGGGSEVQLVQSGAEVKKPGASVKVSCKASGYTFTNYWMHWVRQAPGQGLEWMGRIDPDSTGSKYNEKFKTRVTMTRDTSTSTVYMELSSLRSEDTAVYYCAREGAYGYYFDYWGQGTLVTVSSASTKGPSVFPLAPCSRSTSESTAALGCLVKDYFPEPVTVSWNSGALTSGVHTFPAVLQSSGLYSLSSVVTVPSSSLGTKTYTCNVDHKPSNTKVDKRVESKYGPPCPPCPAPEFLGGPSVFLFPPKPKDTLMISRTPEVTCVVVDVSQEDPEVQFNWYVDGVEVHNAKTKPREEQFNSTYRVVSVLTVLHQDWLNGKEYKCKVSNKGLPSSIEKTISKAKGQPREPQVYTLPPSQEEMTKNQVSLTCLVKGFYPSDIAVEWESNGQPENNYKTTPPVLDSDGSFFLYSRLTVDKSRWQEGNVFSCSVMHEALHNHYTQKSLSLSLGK
light: DIQMTQSPSSLSASVGDRVTITCRASENIYSYLAWYQQKPGKSPKLLIYNARTLAEGVPSRFSGSGSGTDFTLTISSLQPEDFATYYCQYHSGSPLPFGGGTKVEIKRTVAAPSVFIFPPSDEQLKSGTASVVCLLNNFYPREAKVQWKVDNALQSGNSQESVTEQDSKDSTYSLSSTLTLSKADYEKHKVYACEVTHQGLSSPVTKSFNRGEC
B7: humanized anti-PVRIG/TIGIT bispecific antibody 1708-30H2 (bispecific antibody, human IgG4 S228P, kappa)
heavy: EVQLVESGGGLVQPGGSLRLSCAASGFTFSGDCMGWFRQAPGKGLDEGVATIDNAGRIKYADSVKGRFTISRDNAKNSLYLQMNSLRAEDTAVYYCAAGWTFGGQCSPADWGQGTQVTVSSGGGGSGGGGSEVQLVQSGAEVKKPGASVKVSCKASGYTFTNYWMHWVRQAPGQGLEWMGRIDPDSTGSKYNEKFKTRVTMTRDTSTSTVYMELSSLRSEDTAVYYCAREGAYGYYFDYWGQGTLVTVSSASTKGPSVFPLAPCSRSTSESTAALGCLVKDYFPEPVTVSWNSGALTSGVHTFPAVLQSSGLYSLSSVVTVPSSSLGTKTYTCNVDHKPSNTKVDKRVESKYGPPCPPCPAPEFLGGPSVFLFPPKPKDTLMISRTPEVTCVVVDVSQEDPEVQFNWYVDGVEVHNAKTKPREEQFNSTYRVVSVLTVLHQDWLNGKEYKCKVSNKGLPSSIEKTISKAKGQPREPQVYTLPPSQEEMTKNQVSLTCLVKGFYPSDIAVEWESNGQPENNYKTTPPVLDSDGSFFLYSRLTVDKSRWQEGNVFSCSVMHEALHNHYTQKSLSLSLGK
light: B6 light

One experiment has as its target T1, human PVRIG expressed on cells (human, UniProt Q6DKI7 41-326).
T1 sequence (looked up): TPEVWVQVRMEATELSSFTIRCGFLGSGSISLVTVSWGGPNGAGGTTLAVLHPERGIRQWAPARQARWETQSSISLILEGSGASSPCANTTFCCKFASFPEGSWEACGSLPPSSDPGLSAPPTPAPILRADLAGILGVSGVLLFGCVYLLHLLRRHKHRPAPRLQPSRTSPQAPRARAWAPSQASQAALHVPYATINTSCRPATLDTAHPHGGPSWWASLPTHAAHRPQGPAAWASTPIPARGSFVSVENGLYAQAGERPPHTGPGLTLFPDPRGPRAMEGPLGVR
Description: cell-based or functional assay.
As to B1, the “MLR IFNγ (pg/mL), 4 nM antibody” value was determined as 912 pg/mL; the “MLR IFNγ (pg/mL), 20 nM antibody” value is 1420 pg/mL; the “MLR IFNγ (pg/mL), 100 nM antibody” value is 2350 pg/mL.
With B2, the “MLR IFNγ (pg/mL), 4 nM antibody” value amounted to 1500 pg/mL; the “MLR IFNγ (pg/mL), 20 nM antibody” value came out at 2220 pg/mL; the “MLR IFNγ (pg/mL), 100 nM antibody” value is 1800 pg/mL.
The like results for B3 were, in that order, 1390 pg/mL, 2020 pg/mL and 2130 pg/mL.
The corresponding values for B4 are 1680 pg/mL, 1910 pg/mL and 1580 pg/mL.

The target in another experiment is T2, his-tagged human PVRIG (h-PVRIG-his) recombinant protein (human, UniProt Q6DKI7 41-171, limits assumed).
T2 construct: bought from Acrobiosystems; also called Human PVRIG-his; human PVRIG recombinant protein; not shown: his tag
T2 sequence (looked up): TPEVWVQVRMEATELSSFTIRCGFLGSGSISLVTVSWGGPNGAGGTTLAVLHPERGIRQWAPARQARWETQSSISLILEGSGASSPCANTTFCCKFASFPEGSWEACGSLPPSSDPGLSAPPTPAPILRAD
Description: BLI (Fortebio), antibody on Protein A sensor, 1:1 fit. On the procedure: A Protein A biosensor (Fortebio, #18-5010) was immersed in 200 μL of KB buffer (PBS, pH 7.4, 0.02% tween-20, 0.1% BSA) for 60 s for the wetting treatment. Then, the anti-PVRIG antibody was diluted to 10 μg/mL with the KB buffer, and the sensor was immersed in 200 μL of the solution until the reading was 1.2 nm. The sensor was immersed in the KB buffer for 100 s to elute excess antibody. The his-tagged human PVRIG was diluted in a 2-fold gradient to 64 nM-4 nM with the KB buffer. The sensor was immersed in the solution for 300 s for binding. The sensor was immersed in the KB buffer for 600 s for dissociation. The data were fitted in a dynamic 1:1 binding mode.
A general note: BLI is a label-free optical method that tracks binding on a fibre tip over time.
On to B5, for which the Kd (commonly the concentration at which binding is half-saturated) was 0.696 nM; the koff (in general, the first-order rate constant of dissociation) came to 0.000169 s⁻¹; the on-rate (kon) (commonly the second-order rate constant of association) was 242000 M⁻¹ s⁻¹.
On to B1, for which the dissociation constant Kd was 0.219 nM.
Regarding B2, the dissociation constant (Kd) stood at 0.2 nM, the koff was 5.22e-05 s⁻¹ and the on-rate constant (kon) turned out to be 261000 M⁻¹ s⁻¹.
The like results for B3 were, in that order, 2.17 nM, 0.000287 s⁻¹ and 132000 M⁻¹ s⁻¹.
The corresponding values for B4 are 0.723 nM, 0.000205 s⁻¹ and 284000 M⁻¹ s⁻¹.

The target in a further experiment is T3, mouse IgG2a Fc-tagged human PVRIG (h-PVRIG-mIgG2a Fc) recombinant protein (human, UniProt Q6DKI7 41-171, limits assumed).
T3 construct: bought from Acrobiosystems; not shown: mouse IgG2a Fc tag
T3 sequence (looked up): T2 sequence (looked up)
Description: competition ELISA; coated h-PVRIG-mIgG2a Fc, competitor his-PVRL2. As for the experimental part:
In this experiment, by in vitro blocking experiment, the ability of the selected anti-PVRIG antibodies to block the binding of human PVRIG to its ligand human PVRL2 was detected. Specifically, a mouse IgG2a Fc-tagged human PVRIG recombinant protein (h-PVRIG-mIgG2a Fc) was coated on a 96-well microplate, an anti-PVRIG antibody was added to fully bind to and occupy an epitope, then his-tagged PVRL2 (PV2-H52E2, AcroBiosystem) was added, and the binding amount of PVRIG and PVRL2 was calculated by detecting the his tag. The IC₅₀ value of the anti-PVRIG antibody for blocking the PVRIG active site was calculated.
(§1) The h-PVRIG-mIgG2a Fc protein (at a concentration of 1 μg/mL) was coated on the 96-well microplate at 100 μL per well, and incubated overnight at 4° C. The plate was washed three times with wash buffer at 250 μL per well. For each wash, the plate was shaken for 10 s to ensure adequate cleaning. A blocking solution was added at 300 μL/well, and the plate was incubated at room temperature for 1 h. The plate was washed three times with wash buffer at 250 μL per well. For each wash, the plate was shaken for 10 s to ensure adequate cleaning. 50 μL of diluted test anti-PVRIG antibody and 50 μL of his-tagged ligand PVRL2 were added to each well, and the plate was incubated at 37° C. for 1 h. The plate was washed three times with wash buffer at 250 μL per well. The HRP-labeled anti-his-tagged secondary antibody (Genscrpit) diluted at 1:2000 was added at 100 μL per well. The plate was incubated at 37° C. for 1 h. The plate was washed three times with wash buffer at 250 μL per well. TMB was added at 100 μL/well, and the plate was incubated in the dark for 15 min. 0.16 M sulfuric acid was added at 50 μL/well. OD values at 450 nm were measured using a Thermo MμtLtiSkanFc microplate reader, and the IC₅₀ values of the anti-PVRIG antibodies blocking the binding of PVRIG to PVRL2 were calculated.
On the technique in general: An ELISA detects its analyte on a solid surface through an enzyme-linked reagent.
B5: the half-inhibitory concentration (IC50) – broadly, the midpoint of a concentration-inhibition curve – amounted to 0.76 nM.
On to B1, for which the IC50 is 1.16 nM.
Take B2: the IC50 was 0.37 nM.
B3: the IC50 amounted to 0.93 nM.
On the same count and under the same terms, then B4, with 1.11 nM.

The next experiment addresses T1, human PVRIG expressed on cells. Description: FACS, cells overexpressing target. As for the experimental part:
The expression plasmid carrying human or cynomolgus monkey PVRIG gene sequence was transfected into HEK293 cells, and the over-expressing stable transfection monoclonal cell strain was obtained by antibiotic screening and infinite dilution. Overexpressing cells were seeded into a 96-well plate at 2×10⁵ cells/per well. The cells were centrifuged at 300 g for 5 min, the supernatant was then removed, 100 μL of the test antibody was added, and the mixture was incubated at 4° C. for 1 h. The mixture was centrifuged, the supernatant was removed, the plate was washed 3 times with 200 μL of wash buffer (PBS+2% FBS), and then 100 μL of an anti-human IgG secondary antibody (Invitrogen, A-11013) labeled with Alexa Fluor 488 diluted at 1:500 was added. The mixture was incubated at 4° C. for 1 h. The plate was centrifuged, and the supernatant was removed. The plate was washed 3 times with 200 μL of wash buffer (PBS+2% FBS). The cells were resuspended in 100 μL of PBS and tested on a flow cytometer (BD FACS Calibur or BD FACS Canto_II).
(§2) Binding of the humanized anti-PVRIG/TIGIT bispecific antibodies to human and cynomolgus monkey PVRIG and their blocking of the ligand of human PVRIG were detected according to the methods of Examples 4, 5 and 6.
Background: Flow cytometry measures light scatter and fluorescence of single cells or particles in a stream.
Consider B6, for which a half-maximal effect (EC50) was put at 0.075 nM.
The same measure, in the same setting: the figure for B7 is 0.056 nM; for B1 it is 0.789 nM.

The target in another experiment is T3, mouse IgG2a Fc-tagged human PVRIG …. Description: competition ELISA; human PVRIG coated, competitor human PVRL2. On the procedure:
as §1, §2
Regarding B6, the IC50 is 0.628 nM.
The same measure, in the same setting: then B7, with 0.552 nM.
For the molecule B1, the half-inhibitory concentration (IC50) came out at 0.964 nM.
